How the values were obtained:
[1] = biological target: T1, LASV NP-C (catalytically active exoribonuclease domain) (Lassa virus, UniProt P13699 364-569); experiment: X-ray crystallography, 1.68 A; […], pH 5.5, room temperature; […]; details: protein: recombinant; 5' overhang 4 nt on complementary strand
[2] = biological target: T1, LASV NP-C (catalytically active …); experiment: […], pH 5.5, room temperature; […]; details: protein: recombinant; blunt; self-complementary, 2 copies of one strand

T1 sequence (P13699 364-569): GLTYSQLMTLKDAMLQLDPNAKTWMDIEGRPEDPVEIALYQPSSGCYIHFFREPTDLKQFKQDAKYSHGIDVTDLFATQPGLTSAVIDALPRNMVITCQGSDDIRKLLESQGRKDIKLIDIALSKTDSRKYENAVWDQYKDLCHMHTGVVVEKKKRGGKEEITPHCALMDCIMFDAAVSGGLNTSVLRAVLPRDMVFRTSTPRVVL

Binder	binding result [1]	binding result [2]
cleaved intermediate of the 5'-ppp dsRNA (4-nt cleaving strand, 8-nt complementary strand) (dsRNA, 5'-triphosphate) RNA 1: GGGC RNA 2: GGGCGCCC	binds	–
8-bp 5'-ppp dsRNA (input) (dsRNA, 5'-triphosphate) RNA 1: GGGCGCCC RNA 2: GGGCGCCC	–	binds

— article PMC3675627, “Structures of Arenaviral Nucleoproteins with Triphosphate dsRNA Reveal a Unique Mechanism of Immune Suppression*”
